Measured values taken from patent US20210214414A1 (Pfizer, published 2021).

What was measured:
[1] = target: T1, Human/cynomolgus monkey SLIT2-D2 (human and cynomolgus monkey (100% …, UniProt O94813 271-479)); test: SPR, ROBO2-Fc 2.2 captured by anti-human Fc on a C1 chip, SLIT2-D2 as analyte, 1:1 model
T1 construct: domain: D2; the crystallisation construct (271-479, His6) is kept as a separate molecule; also called Human and Cynomolgus Monkey SLIT2-D2; SLIT2 D2 domain
T1 sequence (looked up): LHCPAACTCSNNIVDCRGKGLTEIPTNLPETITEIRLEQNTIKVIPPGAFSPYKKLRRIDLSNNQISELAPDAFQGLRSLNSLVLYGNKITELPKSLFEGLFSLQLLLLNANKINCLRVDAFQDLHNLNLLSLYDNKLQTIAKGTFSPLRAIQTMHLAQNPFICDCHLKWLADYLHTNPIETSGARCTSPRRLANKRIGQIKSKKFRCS
Method: HBS-EP was used as a diluent. […] An 8 point 2-fold dilution series was performed on the SLIT2 ligands, ranging from 2 nM to 15.6 pM using HBS-EPB as the diluent. […] Association of the indicated SLIT2 ligand was followed for 120 s and dissociation monitored for 180 s. The apparent binding affinity was determined using a simple 1:1 interaction model of the kinetic rate constants.

Rat SLIT1-N = target: T2, Rat SLIT1-N (rat, UniProt O88279 34-1124, limits assumed); test: HTRF competition: d2-labelled rat SLIT1-N binding to human ROBO2 on HEK293 cells; geometric mean, n=3
T2 construct: domain: SLIT1-N; d2-labelled in the HTRF assay
T2 sequence (looked up): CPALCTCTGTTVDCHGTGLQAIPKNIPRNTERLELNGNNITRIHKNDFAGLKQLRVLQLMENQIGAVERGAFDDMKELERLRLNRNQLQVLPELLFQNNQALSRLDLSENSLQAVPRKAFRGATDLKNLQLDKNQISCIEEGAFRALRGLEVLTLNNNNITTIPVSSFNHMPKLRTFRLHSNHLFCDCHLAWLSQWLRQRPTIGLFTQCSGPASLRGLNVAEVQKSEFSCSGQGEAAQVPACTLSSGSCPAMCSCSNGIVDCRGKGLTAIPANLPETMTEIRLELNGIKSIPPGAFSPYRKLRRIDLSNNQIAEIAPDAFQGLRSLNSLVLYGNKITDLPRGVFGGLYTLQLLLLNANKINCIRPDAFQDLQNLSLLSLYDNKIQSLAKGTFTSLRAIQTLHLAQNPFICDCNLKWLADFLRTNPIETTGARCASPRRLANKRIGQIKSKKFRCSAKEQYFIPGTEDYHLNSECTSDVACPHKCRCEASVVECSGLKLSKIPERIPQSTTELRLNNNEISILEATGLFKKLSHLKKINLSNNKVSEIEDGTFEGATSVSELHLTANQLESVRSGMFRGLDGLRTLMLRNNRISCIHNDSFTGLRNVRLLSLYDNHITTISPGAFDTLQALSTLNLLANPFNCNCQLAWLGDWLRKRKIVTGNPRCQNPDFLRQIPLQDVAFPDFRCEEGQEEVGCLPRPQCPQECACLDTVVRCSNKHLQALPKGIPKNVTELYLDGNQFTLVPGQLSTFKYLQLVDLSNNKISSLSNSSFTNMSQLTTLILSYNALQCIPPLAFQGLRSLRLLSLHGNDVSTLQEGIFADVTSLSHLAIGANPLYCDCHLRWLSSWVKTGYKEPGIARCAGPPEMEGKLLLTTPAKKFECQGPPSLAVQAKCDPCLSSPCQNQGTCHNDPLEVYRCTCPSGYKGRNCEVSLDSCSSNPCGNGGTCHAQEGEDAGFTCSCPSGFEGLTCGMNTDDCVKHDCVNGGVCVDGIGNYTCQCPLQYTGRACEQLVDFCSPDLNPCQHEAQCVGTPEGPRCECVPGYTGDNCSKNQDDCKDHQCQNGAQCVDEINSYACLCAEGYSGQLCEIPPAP
Method: (§1) After incubation, fluorescence at 665 nm and 620 nm was measured on an Envision multilabel plate reader. The HTRF Ratio was calculated as follows: fluorescence at 665 nm/fluorescence at 620 nm×10,000. […] The IC₅₀ for each SLITx-N was determined using an 11-point, 4-fold dilution series with a top concentration of 4000 nM.

Human SLIT1-N = target: T3, Human SLIT1-N (human, UniProt O75093 34-1127, limits assumed); test: HTRF competition: d2-labelled human SLIT1-N binding to human ROBO2 on HEK293 cells; geometric mean, n=3
T3 construct: domain: SLIT1-N; d2-labelled in the HTRF assay
T3 sequence (looked up): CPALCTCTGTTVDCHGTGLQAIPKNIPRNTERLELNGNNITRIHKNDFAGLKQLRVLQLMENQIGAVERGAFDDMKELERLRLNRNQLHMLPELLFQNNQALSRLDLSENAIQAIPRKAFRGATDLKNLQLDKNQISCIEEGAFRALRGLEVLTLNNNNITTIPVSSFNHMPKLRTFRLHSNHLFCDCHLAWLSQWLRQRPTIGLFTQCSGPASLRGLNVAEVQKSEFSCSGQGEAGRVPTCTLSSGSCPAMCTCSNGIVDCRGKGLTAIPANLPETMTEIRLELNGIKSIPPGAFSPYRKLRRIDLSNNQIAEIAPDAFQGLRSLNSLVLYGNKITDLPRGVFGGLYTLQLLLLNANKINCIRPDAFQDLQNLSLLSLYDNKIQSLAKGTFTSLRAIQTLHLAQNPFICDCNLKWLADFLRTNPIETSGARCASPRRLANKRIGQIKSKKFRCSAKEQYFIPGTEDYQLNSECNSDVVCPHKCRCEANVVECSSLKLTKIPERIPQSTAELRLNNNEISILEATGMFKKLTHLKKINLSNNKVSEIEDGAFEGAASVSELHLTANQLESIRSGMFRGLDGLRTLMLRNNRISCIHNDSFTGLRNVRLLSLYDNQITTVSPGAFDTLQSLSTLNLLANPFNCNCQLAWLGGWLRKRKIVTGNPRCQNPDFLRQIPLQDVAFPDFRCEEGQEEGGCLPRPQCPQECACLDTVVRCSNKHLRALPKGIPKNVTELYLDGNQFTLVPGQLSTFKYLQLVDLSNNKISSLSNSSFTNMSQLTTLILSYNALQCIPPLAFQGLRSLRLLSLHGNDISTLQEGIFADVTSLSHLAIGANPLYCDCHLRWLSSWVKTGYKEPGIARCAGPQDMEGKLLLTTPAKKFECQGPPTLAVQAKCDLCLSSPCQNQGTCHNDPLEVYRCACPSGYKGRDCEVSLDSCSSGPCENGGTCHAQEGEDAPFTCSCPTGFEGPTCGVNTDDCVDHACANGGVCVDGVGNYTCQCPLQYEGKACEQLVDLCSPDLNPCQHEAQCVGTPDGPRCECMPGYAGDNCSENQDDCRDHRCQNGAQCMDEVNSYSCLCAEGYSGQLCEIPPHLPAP
Method: as §1

- Kd [1]: 0.293 nM
- IC50 (Rat SLIT1-N): 8.3 nM
- IC50 (Human SLIT1-N): 5.9 nM
B1: ROBO2-Fc 2.2 (Fc fusion)
chain: SRLRQEDFPPRIVEHPSDVIVSKGEPTTLNCKAEGRPTPTIEWYKDGERVETDKDDPRSHRMLLPSGSLFFLRIVHGRRSKPDEGSYVCVARNYLGEAVSRNASLEVALLRDDFRQNPTDVVVAAGEPAILECQPPRGHPEPTIYWKKDKVRIDDKEERISIRGGKLMISNTRKSDAGMYTCVGTNMVGERDSDPAELTVFERGGSGGSEPKSSDKTHTCPPCPAPEAAGAPSVFLFPPKPKDTLMISRTPEVTCVVVDVSHEDPEVKFNWYVDGVEVHNAKTKPREEQYNSTYRVVSVLTVLHQDWLNGKEYKCKVSNKALPAPIEKTISKAKGQPREPQVYTLPPSREEMTKNQVSLTCLVKGFYPSDIAVEWESNGQPENNYKTTPPVLDSDGSFFLYSKLTVDKSRWQQGNVFSCSVMHEALHNHYTQKSLSLSPG
notes: Labelled with Alexa Fluor 647 in the flow cytometry assay; also called ROBO-Fc 2.2; ROBO2-Fc 2.2-AF647
